# Measured values from US20230063116A1 (Regeneron, published 2023).
# Where two headings read alike, the source gives them in different places.
# B1: REGN7080 (VEGF minitrap-G4Sx6-VEGF minitrap mmH) (receptor)
# chain: SDTGRPFVEMYSEIPEIIHMTEGRELVIPCRVTSPNITVTLKKFPLDTLIPDGKRIIWDSRKGFIISNATYKEIGLLTCEATVNGHLYKTNYLTHRQTNTIIDVVLSPSHGIELSVGEKLVLNCTARTELNVGIDFNWEYPSSKHQHKKLVNRDLKTQSGSEMKKFLSTLTIDGVTRSDQGLYTCAASSGLMTKKNSTFVRVHEKGGGGSGGGGSGGGGSGGGGSGGGGSGGGGSSDTGRPFVEMYSEIPEIIHMTEGRELVIPCRVTSPNITVTLKKFPLDTLIPDGKRIIWDSRKGFIISNATYKEIGLLTCEATVNGHLYKTNYLTHRQTNTIIDVVLSPSHGIELSVGEKLVLNCTARTELNVGIDFNWEYPSSKHQHKKLVNRDLKTQSGSEMKKFLSTLTIDGVTRSDQGLYTCAASSGLMTKKNSTFVRVHEKEQKLISEEDLGGEQKLISEEDLHHHHHH
# notes: Monomeric single chain; also called REGN7080 (G4Sx6 linker); single chain mini-trap with (G4S)6 linker and C-terminal mmH tag
# B2: REGN7483^F (homodimer mini-trap, FabRICATOR cleaved from aflibercept) (receptor)
# chain: SDTGRPFVEMYSEIPEIIHMTEGRELVIPCRVTSPNITVTLKKFPLDTLIPDGKRIIWDSRKGFIISNATYKEIGLLTCEATVNGHLYKTNYLTHRQTNTIIDVVLSPSHGIELSVGEKLVLNCTARTELNVGIDFNWEYPSSKHQHKKLVNRDLKTQSGSEMKKFLSTLTIDGVTRSDQGLYTCAASSGLMTKKNSTFVRVHEKDKTHTCPPCPAPELLG
# modifications: here or on the partner: N-linked glycans at N36, N68, N123, N196 (Table C)
# B3: REGN7483^R (homodimer mini-trap, recombinant) (receptor)
# chain: B2 chain
# modifications: here or on the partner: N-linked glycans at N36, N68, N123, N196 (Table C)
# B4: REGN6824 (hVEGF minitrap-G4Sx3-hVEGF minitrap-mmH) (receptor)
# chain: SDTGRPFVEMYSEIPEIIHMTEGRELVIPCRVTSPNITVTLKKFPLDTLIPDGKRIIWDSRKGFIISNATYKEIGLLTCEATVNGHLYKTNYLTHRQTNTIIDVVLSPSHGIELSVGEKLVLNCTARTELNVGIDFNWEYPSSKHQHKKLVNRDLKTQSGSEMKKFLSTLTIDGVTRSDQGLYTCAASSGLMTKKNSTFVRVHEKGGGGSGGGGSGGGGSSDTGRPFVEMYSEIPEIIHMTEGRELVIPCRVTSPNITVTLKKFPLDTLIPDGKRIIWDSRKGFIISNATYKEIGLLTCEATVNGHLYKTNYLTHRQTNTIIDVVLSPSHGIELSVGEKLVLNCTARTELNVGIDFNWEYPSSKHQHKKLVNRDLKTQSGSEMKKFLSTLTIDGVTRSDQGLYTCAASSGLMTKKNSTFVRVHEKEQKLISEEDLGGEQKLISEEDLHHHHHH
# notes: Monomeric single chain; also called REGN6824 (G4Sx3 linker); single chain mini-trap with (G4S)3 linker and C-terminal mmH tag
# B5: REGN7850 (VEGF mini-trap-hFc …) (receptor)
# chain: SDTGRPFVEMYSEIPEIIHMTEGRELVIPCRVTSPNITVTLKKFPLDTLIPDGKRIIWDSRKGFIISNATYKEIGLLTCEATVNGHLYKTNYLTHRQTNTIIDVVLSPSHGIELSVGEKLVLNCTARTELNVGIDFNWEYPSSKHQHKKLVNRDLKTQSGSEMKKFLSTLTIDGVTRSDQGLYTCAASSGLMTKKNSTFVRVHEKDKTHTCPPCPPC
# notes: Recombinant homodimer; also called REGN7850 (CPPCPPC)
# B6: REGN7851 (VEGF mini-trap-hFc …) (receptor)
# chain: SDTGRPFVEMYSEIPEIIHMTEGRELVIPCRVTSPNITVTLKKFPLDTLIPDGKRIIWDSRKGFIISNATYKEIGLLTCEATVNGHLYKTNYLTHRQTNTIIDVVLSPSHGIELSVGEKLVLNCTARTELNVGIDFNWEYPSSKHQHKKLVNRDLKTQSGSEMKKFLSTLTIDGVTRSDQGLYTCAASSGLMTKKNSTFVRVHEKDKTHTCPPCPPCPPC
# notes: Recombinant homodimer; also called REGN7851 (CPPCPPCPPC)
# B7: VEGF121 (hVEGF121, aa 207-327) (ligand)
# chain: APMAEGGGQNHHEVVKFMDVYQRSYCHPIETLVDIFQEYPDEIEYIFKPSCVPLMRCGGCCNDEGLECVPTEESNITMQIMRIKPHQGQHIGEMSFLQHNKCECRPKKDRARQEKCDKPRR
# Tests used:
# [1] = target: chimeric VEGFR1 receptors on HEK293/D9/Flt-IL18Rα/Flt-IL18Rβ clone V3H9 cells (UniProt P17948); experiment: cell-based or functional assay
# [2] = target: chimeric VEGFR1 receptors on HEK293/D9/Flt-IL18Rα/Flt-IL18Rβ clone V3H9 cells (UniProt P17948); experiment: cell-based or functional assay; remark: listed apart in the source
# [3] = target: chimeric VEGFR1 receptors on HEK293/D9/Flt-IL18Rα/Flt-IL18Rβ clone V3H9 cells (UniProt P17948); experiment: cell-based or functional assay; remark: listed apart in the source
# human VEGF165 (REGN110) [4] = target: T1, human VEGF165 (REGN110) (human, UniProt P15692 207-395); experiment: SPR, Biacore, 25 C; trap captured on anti-VEGFR1 mAb surface, hVEGF165 injected
# T1 construct: also called hVEGF165; hVEGF165(M1-R191)
# Experimental: (§1) Experimental Procedure. Equilibrium dissociation constants (KD values) for human VEGF₁₆₅ binding to various purified VEGF mini-trap constructs were determined using a real-time surface plasmon resonance biosensor using a Biacore 3000 instrument. All binding studies were performed in 10 mM HEPES, 150 mM NaCl, 3 mM EDTA, and 0.05% v/v Surfactant Tween-20, pH 7.4 (HBS-ET) running buffer at 25° C. The Biacore sensor surface was first derivatized by amine coupling with a monoclonal mouse anti-VEGFR1 antibody to capture VEGF mini-trap constructs. Binding studies were performed on the human VEGF reagent, human VEGF₁₆₅ (human VEGF₁₆₅; SEQ ID NO: 31). Different concentrations of VEGF₁₆₅ reagent, prepared in HBS-ET running buffer (2 nM — 62.5 pM; 2-fold serial dilution for human VEGF₁₆₅), were injected over an anti-VEGFR1-captured VEGF mini-trap construct surface for 1.8 minutes at a flow rate of 90 μL/minute, while the dissociation of VEGF mini-trap constructs bound VEGF₁₆₅ reagent was monitored for 60 minutes in HBS-ET running buffer. Kinetic association (kₐ) and dissociation (kd) rate constants were determined by fitting the real-time sensorgrams to a 1:1 binding model using Scrubber 2.0c curve fitting software. Binding dissociation equilibrium constants (KD) and dissociative half-lives (t½) were calculated from the kinetic rate constants as: […]
# human VEGF165 (REGN110) [5] = target: T1, human VEGF165 (REGN110); experiment: SPR, Biacore 3000, 25 C; trap captured on anti-VEGFR1 mAb surface, hVEGF165 injected; 1:1 fit
# human VEGF165 (REGN110) [6] = target: T1, human VEGF165 (REGN110); experiment: SPR, Biacore, 25 C; trap captured on anti-VEGFR1 mAb surface, hVEGF165 injected; 1:1 fit
# Experimental: as §1
# [7] = target: B7; experiment: cell-based or functional assay
# [8] = target: T2, VEGF110 (hVEGF110, aa 207-318) (human, UniProt P15692 207-318); experiment: cell-based or functional assay
# T2 sequence (looked up): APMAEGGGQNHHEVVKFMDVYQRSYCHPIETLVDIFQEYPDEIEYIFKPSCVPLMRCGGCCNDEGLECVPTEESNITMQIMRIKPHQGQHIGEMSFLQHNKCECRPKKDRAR
# human VEGF165 (REGN110) [9] = target: T1, human VEGF165 (REGN110); experiment: SPR, Biacore 3000, 25 C; trap captured on anti-VEGFR1 mAb surface, hVEGF165 injected
# [10] = target: VEGF121 (hVEGF121, aa 207-327) (human), P15692; experiment: cell-based or functional assay
# [11] = target: B7; experiment: cell-based or functional assay
# human VEGF165 (REGN110) [12] = target: T1, human VEGF165 (REGN110); experiment: cell-based or functional assay
# Target sequence in this assay (P15692 other isoform, or with tags, fused parts or gaps): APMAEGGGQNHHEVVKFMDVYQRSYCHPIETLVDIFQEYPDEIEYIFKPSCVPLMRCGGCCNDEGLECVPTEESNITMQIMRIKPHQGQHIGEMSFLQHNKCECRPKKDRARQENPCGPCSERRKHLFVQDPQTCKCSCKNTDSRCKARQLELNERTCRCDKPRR
# [13] = target: T2, VEGF110 (hVEGF110, aa 207-318); experiment: cell-based or functional assay; remark: listed apart in the source
# [14] = target: T3, chimeric VEGFR1 receptors on HEK293/D9/Flt-IL18Rα/Flt-IL18Rβ clone V3H9 cells (UniProt P17948 27-758; Q13478 351-541; P17948 27-758; O95256 378-599, limits assumed); experiment: cell-based or functional assay
# [15] = target: T3, chimeric VEGFR1 receptors on …; experiment: cell-based or functional assay; remark: listed apart in the source
# [16] = target: T3, chimeric VEGFR1 receptors on …; experiment: cell-based or functional assay; remark: listed apart in the source
# Chain of chimeric VEGFR1 receptors on HEK293/D9/Flt-IL18Rα/Flt-IL18Rβ clone V3H9 cells (UniProt P17948) (P17948 other isoform, or with tags, fused parts or gaps mutant limits assumed, chain 1 of 2): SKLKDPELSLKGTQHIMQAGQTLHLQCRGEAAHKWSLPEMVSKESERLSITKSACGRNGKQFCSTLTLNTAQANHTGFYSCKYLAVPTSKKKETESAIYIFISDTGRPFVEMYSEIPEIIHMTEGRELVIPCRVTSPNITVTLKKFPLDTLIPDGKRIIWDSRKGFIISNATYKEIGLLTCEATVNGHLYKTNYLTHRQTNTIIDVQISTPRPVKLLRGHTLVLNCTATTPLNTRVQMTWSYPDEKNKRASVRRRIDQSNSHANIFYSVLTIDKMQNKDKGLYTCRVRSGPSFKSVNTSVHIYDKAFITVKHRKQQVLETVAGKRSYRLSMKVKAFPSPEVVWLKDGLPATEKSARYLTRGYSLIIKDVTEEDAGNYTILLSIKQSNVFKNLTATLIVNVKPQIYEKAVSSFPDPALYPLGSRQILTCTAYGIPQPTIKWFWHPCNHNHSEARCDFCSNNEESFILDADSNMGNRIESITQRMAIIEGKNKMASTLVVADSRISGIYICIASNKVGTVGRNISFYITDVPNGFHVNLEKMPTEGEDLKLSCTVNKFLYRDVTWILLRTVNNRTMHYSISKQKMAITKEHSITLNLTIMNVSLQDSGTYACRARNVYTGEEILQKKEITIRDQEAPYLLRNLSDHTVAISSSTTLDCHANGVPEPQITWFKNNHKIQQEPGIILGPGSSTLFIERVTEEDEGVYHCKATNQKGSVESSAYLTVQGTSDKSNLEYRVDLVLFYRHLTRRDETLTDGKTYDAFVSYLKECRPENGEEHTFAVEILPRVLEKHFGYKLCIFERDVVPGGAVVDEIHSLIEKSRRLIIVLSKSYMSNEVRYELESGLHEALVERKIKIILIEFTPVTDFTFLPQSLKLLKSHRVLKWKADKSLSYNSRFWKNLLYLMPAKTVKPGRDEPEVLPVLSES
# Chain of chimeric VEGFR1 receptors on HEK293/D9/Flt-IL18Rα/Flt-IL18Rβ clone V3H9 cells (UniProt P17948) (P17948 other isoform, or with tags, fused parts or gaps mutant limits assumed, chain 2 of 2): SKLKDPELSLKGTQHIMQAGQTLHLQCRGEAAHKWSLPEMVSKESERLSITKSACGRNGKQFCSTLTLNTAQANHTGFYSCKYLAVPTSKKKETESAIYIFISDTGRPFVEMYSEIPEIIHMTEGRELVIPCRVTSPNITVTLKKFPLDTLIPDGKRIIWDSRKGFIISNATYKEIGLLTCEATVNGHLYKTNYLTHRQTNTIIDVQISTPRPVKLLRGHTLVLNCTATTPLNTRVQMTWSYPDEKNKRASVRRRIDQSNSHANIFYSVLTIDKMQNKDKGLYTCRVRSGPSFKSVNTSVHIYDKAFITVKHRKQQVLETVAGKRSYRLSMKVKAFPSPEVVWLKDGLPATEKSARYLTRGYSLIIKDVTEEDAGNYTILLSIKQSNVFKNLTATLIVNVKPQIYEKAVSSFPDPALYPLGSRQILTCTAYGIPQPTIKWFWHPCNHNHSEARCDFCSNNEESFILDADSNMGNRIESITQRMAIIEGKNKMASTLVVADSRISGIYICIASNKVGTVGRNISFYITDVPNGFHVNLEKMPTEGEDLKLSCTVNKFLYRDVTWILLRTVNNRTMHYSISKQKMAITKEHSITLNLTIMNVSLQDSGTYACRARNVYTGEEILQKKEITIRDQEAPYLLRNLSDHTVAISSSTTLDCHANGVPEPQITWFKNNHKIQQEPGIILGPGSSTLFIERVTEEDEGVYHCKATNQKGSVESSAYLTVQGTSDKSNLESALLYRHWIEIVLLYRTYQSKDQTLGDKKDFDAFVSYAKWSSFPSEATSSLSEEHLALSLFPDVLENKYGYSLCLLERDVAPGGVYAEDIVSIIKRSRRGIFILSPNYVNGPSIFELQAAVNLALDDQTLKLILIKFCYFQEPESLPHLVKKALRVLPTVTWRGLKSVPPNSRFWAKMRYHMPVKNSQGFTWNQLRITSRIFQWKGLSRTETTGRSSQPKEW
# T3 sequence (P17948 other isoform, or with tags, fused parts or gaps mutant limits assumed, chain 1 of 2): as the sequence (P17948 other isoform, or with tags, fused parts or gaps mutant limits assumed, chain 1 of 2) above
# T3 sequence (P17948 other isoform, or with tags, fused parts or gaps mutant limits assumed, chain 2 of 2): as the sequence (P17948 other isoform, or with tags, fused parts or gaps mutant limits assumed, chain 2 of 2) above
molecule,measurement,setting,value
"VEGF110 (hVEGF110, aa 207-318) (from UniProt P15692 207-318) (ligand)","EC50 (M), activation of HEK293/D9/Flt-IL18Ra/Flt-IL18Rb (luciferase)",[1],2.4e-11 M
same,"EC50 (M), activation of HEK293/D9/Flt-IL18Ra/Flt-IL18Rb (luciferase)",[2],1.14e-11 M
same,"EC50 (M), activation of HEK293/D9/Flt-IL18Ra/Flt-IL18Rb (luciferase)",[3],1.51e-11 M
B1,2nM hVEGF165 Bound,human VEGF165 (REGN110) [4],36 RU
same,Kd,human VEGF165 (REGN110) [5],0.0715 nM
same,koff,human VEGF165 (REGN110) [5],0.000387 s⁻¹
same,kon,human VEGF165 (REGN110) [5],5.41e+06 M⁻¹ s⁻¹
same,t½ (dissociative half-life),human VEGF165 (REGN110) [5],29.8 min
same,Kd,human VEGF165 (REGN110) [6],0.0715 nM
same,koff,human VEGF165 (REGN110) [6],0.000387 s⁻¹
same,kon,human VEGF165 (REGN110) [6],5.41e+06 M⁻¹ s⁻¹
same,t1/2 (dissociative half-life),human VEGF165 (REGN110) [6],29.8 min
same,"IC50 (M), inhibition of VEGFR1 signaling (luciferase), 20 pM VEGF121",[7],1.66e-10 M
same,"IC50 (M), inhibition of VEGFR1 signaling (luciferase), 20 pM VEGF110",[8],1.61e-10 M
same,100 nM hVEGF165 Bound,human VEGF165 (REGN110) [9],36 RU
B2,"IC50 (M), inhibition of VEGFR1 signaling (luciferase), 20 pM VEGF121",[10],9.27e-12 M
B3,"IC50 (M), inhibition of VEGFR1 signaling (luciferase), 20 pM VEGF121",[10],8.79e-12 M
B4,2nM hVEGF165 Bound,human VEGF165 (REGN110) [4],33 RU
same,Kd,human VEGF165 (REGN110) [5],0.0861 nM
same,koff,human VEGF165 (REGN110) [5],0.000554 s⁻¹
same,kon,human VEGF165 (REGN110) [5],6.44e+06 M⁻¹ s⁻¹
same,t½ (dissociative half-life),human VEGF165 (REGN110) [5],20.9 min
same,Kd,human VEGF165 (REGN110) [6],0.0861 nM
same,koff,human VEGF165 (REGN110) [6],0.000554 s⁻¹
same,kon,human VEGF165 (REGN110) [6],6.44e+06 M⁻¹ s⁻¹
same,t1/2 (dissociative half-life),human VEGF165 (REGN110) [6],20.9 min
same,"IC50 (M), inhibition of VEGFR1 signaling (luciferase), 20 pM VEGF121",[7],2.44e-10 M
same,"IC50 (M), inhibition of VEGFR1 signaling (luciferase), 20 pM VEGF110",[8],2.22e-10 M
same,100 nM hVEGF165 Bound,human VEGF165 (REGN110) [9],33 RU
B5,2nM hVEGF165 Bound,human VEGF165 (REGN110) [4],56 RU
same,Kd,human VEGF165 (REGN110) [6],0.00155 nM
same,koff,human VEGF165 (REGN110) [6],≥ 1e-05 s⁻¹
same,kon,human VEGF165 (REGN110) [6],6.46e+06 M⁻¹ s⁻¹
same,t1/2 (dissociative half-life),human VEGF165 (REGN110) [6],≥ 1160 min
same,"IC50 (M), inhibition of VEGFR1 signaling (luciferase), 20 pM VEGF121",[11],1.66e-11 M
same,"IC50 (M), inhibition of VEGFR1 signaling (luciferase), 20 pM VEGF165",human VEGF165 (REGN110) [12],2.99e-11 M
same,"IC50 (M), inhibition of VEGFR1 signaling (luciferase), 20 pM VEGF110",[13],1.22e-11 M
B6,2nM hVEGF165 Bound,human VEGF165 (REGN110) [4],51 RU
same,Kd,human VEGF165 (REGN110) [6],0.00181 nM
same,koff,human VEGF165 (REGN110) [6],≥ 1e-05 s⁻¹
same,kon,human VEGF165 (REGN110) [6],5.51e+06 M⁻¹ s⁻¹
same,t1/2 (dissociative half-life),human VEGF165 (REGN110) [6],≥ 1160 min
same,"IC50 (M), inhibition of VEGFR1 signaling (luciferase), 20 pM VEGF121",[11],1.83e-11 M
same,"IC50 (M), inhibition of VEGFR1 signaling (luciferase), 20 pM VEGF165",human VEGF165 (REGN110) [12],2.68e-11 M
same,"IC50 (M), inhibition of VEGFR1 signaling (luciferase), 20 pM VEGF110",[13],1.45e-11 M
B7,"EC50 (M), activation of HEK293/D9/Flt-IL18Ra/Flt-IL18Rb (luciferase)",[14],2.12e-11 M
same,"EC50 (M), activation of HEK293/D9/Flt-IL18Ra/Flt-IL18Rb (luciferase)",[15],2.56e-11 M
same,"EC50 (M), activation of HEK293/D9/Flt-IL18Ra/Flt-IL18Rb (luciferase)",[16],4.4e-11 M
